System: Bacillus subtilis
Assay: cleaved RNA product abundance (RNA/gDNA barcode ratio) relative to median wild-type variant (ratio to wild type); higher = more accumulation of the downstream cleavage product
Conditions: cleavage site: cggR-gapA (positions -7 to +36 mutated)
Procedure, shortened: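 In LB at 37°C, B. subtilis cultures went from OD600 0.0003 to 0.3. Their chromosomes held barcoded reporter mRNAs, truncated aprE or tetM, with RNase Y cleavage-site windows mutagenized via oligos at a 9% error rate. Cleaved RNA, chosen by gel, was reverse transcribed and barcode-sequenced alongside genomic DNA barcodes with UMI collapsing, giving a per-construct RNA:gDNA ratio scaled to the median construct with the unmutated site. This scaled ratio is termed cleaved product abundance.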

[1] = experiment (reporter, strain, medium): exp 4a: truncated aprE reporter, strain BJT201 with 2% xylose (RNase J1 expressed)
[2] = experiment (reporter, strain, medium): exp 2b: truncated aprE reporter, strain BJT200
[3] = experiment (reporter, strain, medium): exp 6: tetM reporter, strain 168

Sequence	cleaved RNA product abundance [1]	cleaved RNA product abundance [2]	cleaved RNA product abundance [3]
ACAGACGAAGGAGCCGCAAAGAAGTTATTAAGGGATGAATAATCCGTAAATATAAATATCTCTCACTTATTTAAA	0.28		
ACAGACGAAGGAGCCGCAAAGAAGTTATTAAGGGATGAATAATCCGTCAAAATAAATATCTCTCACTTATTTAAA	0.262		
ACAGACGAAGGAGCCGCAAAGAAGTTATTAAGGGATGAATAATCCGTCAATAAAAATATCTCTCACTTATTTAAA	0.173		
ACAGACGAAGGAGCCGCAAAGAAGTTATTAAGGGATGAATAATCCGTCAATATAAATATCTCTCACTTATTTAAA	0.234	0.167	0.247
ACAGACGAAGGAGCCGCAAAGAAGTTATTAAGGGATGAATAATCCGTCAATATAATTATCTCTCACTTATTTAAA	0.119		
ACAGACGAAGGAGCCGCAAAGAAGTTATTAAGGGATGAATAATCCGTCAATATAGATATCTCTCACTTATTTAAA	0.314		
ACAGACGAAGGAGCCGCAAAGAAGTTATTAAGGGATGAATAATCCGTCAATATCAATATCTCTCACTTATTTAAA	0.15		
ACAGACGAAGGAGCCGCAAAGAAGTTATTAAGGGATGAATAATCCGTCATTATAAATATCTCTCACTTATTTAAA		0.136	
ACAGACGAAGGAGCCGCAAAGAAGTTATTAAGGGATGAATAATCCGTCGATATAAATATCTCTCACTTATTTAAA	0.106	0.0608	
ACAGACGAAGGAGCCGCAAAGAAGTTATTAAGGGATGAATAATCCTACAATATAAATATCTCTCACTTATTTAAA	0.295		
ACAGACGAAGGAGCCGCAAAGAAGTTATTAAGGGATGAATAATCCTCAATATAAATATCTCTCACTTATTTAAAG	0.309	0.205	
ACAGACGAAGGAGCCGCAAAGAAGTTATTAAGGGATGAATAATCCTCCAATATAAATATCTCTCACTTATTTAAA		0.127	
ACAGACGAAGGAGCCGCAAAGAAGTTATTAAGGGATGAATAATCCTTAAATATAAATATCTCTCACTTATTTAAA	0.581		
ACAGACGAAGGAGCCGCAAAGAAGTTATTAAGGGATGAATAATCCTTCAAAATAAATATCTCTCACTTATTTAAA	0.253	0.259	
ACAGACGAAGGAGCCGCAAAGAAGTTATTAAGGGATGAATAATCCTTCAACATAAATATCTCTCACTTATTTAAA		0.159	
ACAGACGAAGGAGCCGCAAAGAAGTTATTAAGGGATGAATAATCCTTCAAGATAAATATCTCTCACTTATTTAAA	0.162		
ACAGACGAAGGAGCCGCAAAGAAGTTATTAAGGGATGAATAATCCTTCAATAAAAATATCTCTCACTTATTTAAA		0.185	
ACAGACGAAGGAGCCGCAAAGAAGTTATTAAGGGATGAATAATCCTTCAATATAAACATCTCTCACTTATTTAAA	0.33	0.415	
ACAGACGAAGGAGCCGCAAAGAAGTTATTAAGGGATGAATAATCCTTCAATATAAATAACTCTCACTTATTTAAA	0.935	0.395	
ACAGACGAAGGAGCCGCAAAGAAGTTATTAAGGGATGAATAATCCTTCAATATAAATATCTCTCACTTATTTAAA	0.576	0.442	0.617

Sequence	cleaved RNA product abundance [1]	cleaved RNA product abundance [2]	cleaved RNA product abundance [3]
ACAGACGAAGGAGCCGCAAAGAAGTTATTAAGGGATGAATAATCCTTCAATATAAATATCTCTCACTTATTTAAG	0.558		
ACAGACGAAGGAGCCGCAAAGAAGTTATTAAGGGATGAATAATCCTTCAATATAAATTTCTCTCACTTATTTAAA	0.346		
ACAGACGAAGGAGCCGCAAAGAAGTTATTAAGGGATGAATAATCCTTCAATATAAGTATCTCTCACTTATTTAAA	0.213		
ACAGACGAAGGAGCCGCAAAGAAGTTATTAAGGGATGAATAATCCTTCAATATAATTATCTCTCACTTATTTAAA	0.387	0.219	
ACAGACGAAGGAGCCGCAAAGAAGTTATTAAGGGATGAATAATCCTTCAATATACATATCTCTCACTTATTTAAA	0.785	0.334	
ACAGACGAAGGAGCCGCAAAGAAGTTATTAAGGGATGAATAATCCTTCAATATATATATCTCTCACTTATTTAAA	0.604		
ACAGACGAAGGAGCCGCAAAGAAGTTATTAAGGGATGAATAATCCTTCAATATGAATATCTCTCACTTATTTAAA	0.18		
ACAGACGAAGGAGCCGCAAAGAAGTTATTAAGGGATGAATAATCCTTCAATGTAAATATCTCTCACTTATTTAAA	0.167		
ACAGACGAAGGAGCCGCAAAGAAGTTATTAAGGGATGAATAATCCTTCAATTTAAATATCTCTCACTTATTTAAA	0.138	0.144	
ACAGACGAAGGAGCCGCAAAGAAGTTATTAAGGGATGAATAATCCTTCAGTATAAATATCTCTCACTTATTTAAA	0.166		
ACAGACGAAGGAGCCGCAAAGAAGTTATTAAGGGATGAATAATCCTTCATTATAAATATCTCTCACTTATTTAAA	0.313		
ACAGACGAAGGAGCCGCAAAGAAGTTATTAAGGGATGAATAATCCTTCCATATAAATATCTCTCACTTATTTAAA		0.19	
ACAGACGAAGGAGCCGCAAAGAAGTTATTAAGGGATGAATAATCCTTCGATATAAATATCTCTCACTTATTTAAA	0.257		
ACAGACGAAGGAGCCGCAAAGAAGTTATTAAGGGATGAATAATCGCACAATATAAATATCTCTCACTTATTTAAA	0.0643		
ACAGACGAAGGAGCCGCAAAGAAGTTATTAAGGGATGAATAATCGCTAAATATAAATATCTCTCACTTATTTAAA		0.0982	
ACAGACGAAGGAGCCGCAAAGAAGTTATTAAGGGATGAATAATCGCTCAAAATAAATATCTCTCACTTATTTAAA	0.116		
ACAGACGAAGGAGCCGCAAAGAAGTTATTAAGGGATGAATAATCGCTCAATATAAATACCTCTCACTTATTTAAA		0.0956	
ACAGACGAAGGAGCCGCAAAGAAGTTATTAAGGGATGAATAATCGCTCAATATAAATATCTCTCACTTATTTAAA	0.12	0.101	0.0971
ACAGACGAAGGAGCCGCAAAGAAGTTATTAAGGGATGAATAATCGCTCAATATATATATCTCTCACTTATTTAAA	0.0772	0.113	
ACAGACGAAGGAGCCGCAAAGAAGTTATTAAGGGATGAATAATCGCTCAATATTAATATCTCTCACTTATTTAAA		0.0992	

Sequence	cleaved RNA product abundance [1]	cleaved RNA product abundance [2]	cleaved RNA product abundance [3]
ACAGACGAAGGAGCCGCAAAGAAGTTATTAAGGGATGAATAATCGCTCAATGTAAATATCTCTCACTTATTTAAA	0.048		
ACAGACGAAGGAGCCGCAAAGAAGTTATTAAGGGATGAATAATCGCTCATTATAAATATCTCTCACTTATTTAAA		0.0605	
ACAGACGAAGGAGCCGCAAAGAAGTTATTAAGGGATGAATAATCGTTCAATATAAATATCTCTCACTTATTTAAA	0.0943		
ACAGACGAAGGAGCCGCAAAGAAGTTATTAAGGGATGAATAATCTATCAATATAAATATCTCTCACTTATTTAAA	0.135		
ACAGACGAAGGAGCCGCAAAGAAGTTATTAAGGGATGAATAATCTCACAATATAAATATCTCTCACTTATTTAAA	0.262	0.18	
ACAGACGAAGGAGCCGCAAAGAAGTTATTAAGGGATGAATAATCTCTAAATATAAATATCTCTCACTTATTTAAA	0.558	0.627	
ACAGACGAAGGAGCCGCAAAGAAGTTATTAAGGGATGAATAATCTCTCAAAATAAATATCTCTCACTTATTTAAA	0.283	0.283	
ACAGACGAAGGAGCCGCAAAGAAGTTATTAAGGGATGAATAATCTCTCAACATAAATATCTCTCACTTATTTAAA	0.156		
ACAGACGAAGGAGCCGCAAAGAAGTTATTAAGGGATGAATAATCTCTCAATATAAAAATCTCTCACTTATTTAAA	0.43	0.464	
ACAGACGAAGGAGCCGCAAAGAAGTTATTAAGGGATGAATAATCTCTCAATATAAATAACTCTCACTTATTTAAA		0.645	
ACAGACGAAGGAGCCGCAAAGAAGTTATTAAGGGATGAATAATCTCTCAATATAAATATCTCTCACTTATTTAAA	0.738	0.688	0.96
ACAGACGAAGGAGCCGCAAAGAAGTTATTAAGGGATGAATAATCTCTCAATATAAATATTTCTCACTTATTTAAA	0.948		
ACAGACGAAGGAGCCGCAAAGAAGTTATTAAGGGATGAATAATCTCTCAATATAAATTTCTCTCACTTATTTAAA	0.708		
ACAGACGAAGGAGCCGCAAAGAAGTTATTAAGGGATGAATAATCTCTCAATATATATATCTCTCACTTATTTAAA	0.989	0.682	
ACAGACGAAGGAGCCGCAAAGAAGTTATTAAGGGATGAATAATCTCTCATTATAAATATCTCTCACTTATTTAAA	0.351		
ACAGACGAAGGAGCCGCAAAGAAGTTATTAAGGGATGAATAATCTCTCTATATAAATATCTCTCACTTATTTAAA	0.292		
ACAGACGAAGGAGCCGCAAAGAAGTTATTAAGGGATGAATAATCTCTGAATATAAATATCTCTCACTTATTTAAA	0.634		
ACAGACGAAGGAGCCGCAAAGAAGTTATTAAGGGATGAATAATCTGTCAATATAAATATCTCTCACTTATTTAAA	0.123	0.0956	
ACAGACGAAGGAGCCGCAAAGAAGTTATTAAGGGATGAATAATCTTTCAATATAAATATCTCTCACTTATTTAAA	0.122		
ACAGACGAAGGAGCCGCAAAGAAGTTATTAAGGGATGAATAATGACTCAATATAAATATCTCTCACTTATTTAAA	0.142		
